The record followed here is the supplement of paper PMC10567573.

First the molecules themselves.
B1: TRAF3IP2 (parent)
chain: PGQPLPGASVRGLHPVQKVILNYP
B2: DYRK1B (parent)
chain: ARKYFERLPGGGWTLRRTKELRKD
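Further: lentivirally expressed fusions sorted by FACS into six bins by GFP to DsRed ratio, PSI derived from sequencing read proportions per bin multiplied by bin number.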

The variants in one data set derive from B1. Kind of data set: protein stability index of a GFP-peptide fusion (GPS, HEK-293T) (PSI 1-6); higher = more stable. The following applies: c terminus: a fixed tail appended.
On to PGQPLPGASVRGLHPVQTVILNYP [K18T], for which the protein stability index came to 3.38.

On to PGQPLPGASVRGLHPVQAVILNYP [K18A], for which the protein stability index stood at 2.64.

Turning to PGQPLPGASVRGLHPVQQVILNYP [K18Q], the protein stability index was found to be 3.78. Still for that read-out and setting: with PGQPLPGASVRGLHPVQGVILNYP [K18G] the figure was 3.57; with PGQPLPGASVRGLHPVQHVILNYP [K18H], 2.85.

PGQPLPGASVRGLHPVQYVILNYP [K18Y]: the protein stability index was determined as 2.52. Consider PGQPLPGASVRGLHPVQLVILNYP [K18L], for which the protein stability index is 2.31.

For the variant PGQPLPGASVRGLHPVQRVILNYP [K18R], the protein stability index was 2.64.

For PGQPLPGASVRGLHPVQVVILNYP [K18V], the protein stability index stood at 2.02.

In the case of PGQPLPGASVRGLHPVQIVILNYP [K18I], the protein stability index worked out at 2.08. The same measure, in the same setting: as for PGQPLPGASVRGLHPVQDVILNYP [K18D], the figure is 3.6. For PGQPLPGASVRGLHPVQMVILNYP [K18M], the protein stability index amounted to 2.72. For the variant PGQPLPGASVRGLHPVQSVILNYP [K18S], the protein stability index is 3.27. For PGQPLPGASVRGLHPYQKVILNYP [V16Y], the protein stability index amounted to 2.04.

On to PGQPLPGASVRGLHPIQKVILNYP [V16I], for which the protein stability index came out at 3.09.

On to PGQPLPGASVRGLHPPQKVILNYP [V16P], for which the protein stability index is 2.66.

Consider PGQPLPGASVRGLHPHQKVILNYP [V16H], for which the protein stability index is 3.03. With PGQPLPGASVRGLHPRQKVILNYP [V16R], the protein stability index was 3.49. The same measure, in the same setting: as for PGQPLPGASVRGLHPTQKVILNYP [V16T], the figure is 3.36. In the case of PGQPLPGASVRGLHPNQKVILNYP [V16N], the protein stability index turned out to be 3.61. The same measure, in the same setting: with PGQPLPGASVRGLHPQQKVILNYP [V16Q] the figure was 3.63.

Take PGQPLPGASVRGLHPMQKVILNYP [V16M]: the protein stability index was determined as 2.72. Same read-out and setting: as for PGQPLPGASVRGLHPLQKVILNYP [V16L], the figure is 2.57; as for PGQPLPGASVRGLHPFQKVILNYP [V16F], 2.83. Consider PGQPLPGASVRGLHPWQKVILNYP [V16W], for which the protein stability index is 2.54. The same measure, in the same setting: as for PGQPLPGASVRGLHPSQKVILNYP [V16S], the figure is 3.46; as for PGQPLPGASVRGLHPVQKVILNYC [P24C], 2.69. Still for that read-out and setting: as for PGQPLPGASVRGLHPVQKVILNYT [P24T], the figure is 2.71; as for PGQPLPGASVRGLHPVQKVILNYA [P24A], 3.16. On the same count and under the same terms, with PGQPLPGASVRGLHPVQKVILNYH [P24H] the figure was 2.38; with PGQPLPGASVRGLHPVQKVILNYY [P24Y], 1.79; with PGQPLPGASVRGLHPVQKVILNYK [P24K], 3.43.

For PGQPLPGASVRGLHPVQKVILNYM [P24M], the protein stability index was found to be 1.22. On the same count and under the same terms, with PGQPLPGASVRGLHPVQKVILNYV [P24V] the figure was 1.93; with PGQPLPGASVRGLHPVQKVILNYN [P24N], 3.5. The same measure, in the same setting: with PGQPLPGASVRGLHPVQKVILNYS [P24S] the figure was 2.7; with PGQPLPGASVRGLHPVQKVILNYW [P24W], 2.72; with PGQPLPGASVRGLHPVQKVILNYG [P24G], 2.56.

For the variant PGQPLPGASVRGLHPVQKVILNYF [P24F], the protein stability index is 1.78.

PGQPLPGASVRGLHPVQKVILNYL [P24L]: the protein stability index is 2.13. Same read-out and setting: with PGQPLPGASVRGLHPVQKVILNYD [P24D] the figure was 3.68; with PGQPLPGASVRGLHPVQKVILNYQ [P24Q], 3.11; with PGQPLPGASVRGLHPVQKVILNYI [P24I], 1.77. Turning to PGQPLPGASVRGLHPVQKVILNYR [P24R], the protein stability index turned out to be 2.65. Take PGQPLPGASVRGLHPVQKVILNYE [P24E]: the protein stability index was 3.31. As to PGQPLPGASVRGLHPVQKVILCYP [N22C], the protein stability index was 2.51. Same read-out and setting: with PGQPLPGASVRGLHPVQKVILDYP [N22D] the figure was 3.13; with PGQPLPGASVRGLHPVQKVILVYP [N22V], 1.69. The same measure, in the same setting: as for PGQPLPGASVRGLHPVQKVILTYP [N22T], the figure is 3.05; as for PGQPLPGASVRGLHPVQKVILEYP [N22E], 3.51. PGQPLPGASVRGLHPVQKVILAYP [N22A]: the protein stability index came out at 2.74. Still for that read-out and setting: as for PGQPLPGASVRGLHPVQKVILPYP [N22P], the figure is 3.44; as for PGQPLPGASVRGLHPVQKVILHYP [N22H], 2.49; as for PGQPLPGASVRGLHPVQKVILMYP [N22M], 2.3. For PGQPLPGASVRGLHPVQKVILSYP [N22S], the protein stability index amounted to 3.27. Still for that read-out and setting: as for PGQPLPGASVRGLHPVQKVILLYP [N22L], the figure is 1.83; as for PGQPLPGASVRGLHPVQKVILGYP [N22G], 2.54; as for PGQPLPGASVRGLHPVQKVILRYP [N22R], 4.18.

Consider PGQPLPGASVRGLHPVQKVILFYP [N22F], for which the protein stability index was 1.59.

In the case of PGQPLPGASVRGLHPVQKVILYYP [N22Y], the protein stability index stood at 1.95. Same read-out and setting: with PGQPLPGASVRGLHPVQKVILQYP [N22Q] the figure was 2.98.

Variants of B2 are the subject of the next data set. The data set is described as above. Particulars: c terminus: a fixed tail appended.
As for ARKYGERLPGGGWTLRRTKELRKD [F5G], the protein stability index was determined as 3.63. In the case of ARKTFERLPGGGWTLRRTKELRKD [Y4T], the protein stability index turned out to be 3.14.

As to ARKYFERLPGGYWTLRRTKELRKD [G12Y], the protein stability index came to 2.42. On to ARKYFERLPGGIWTLRRTKELRKD [G12I], for which the protein stability index was found to be 2.03. Still for that read-out and setting: with ARKYFERLPGGPWTLRRTKELRKD [G12P] the figure was 2.96; with ARKYFERLPGGNWTLRRTKELRKD [G12N], 2; with ARKYFERLPGGGATLRRTKELRKD [W13A], 3.72. For ARKYFERLPGGGGTLRRTKELRKD [W13G], the protein stability index was 5.15. For ARKYFERLPGGGVTLRRTKELRKD [W13V], the protein stability index was 3.07. Still for that read-out and setting: with ASKYFERLPGGGWTLRRTKELRKD [R2S] the figure was 4.28. The same measure, in the same setting: as for ATKYFERLPGGGWTLRRTKELRKD [R2T], the figure is 3.52; as for ARKYFERLVGGGWTLRRTKELRKD [P9V], 2.96.

With ARKYFERLPGGGWTLPRTKELRKD [R16P], the protein stability index came out at 3.73. On the same count and under the same terms, as for ARKYFERLPGGGWTLFRTKELRKD [R16F], the figure is 1.69; as for ARKYFERLPGGGWTLMRTKELRKD [R16M], 1.97; as for ARKYFERLPGGGWTLGRTKELRKD [R16G], 3.66.

As to ARKYFERLPGGGWTLLRTKELRKD [R16L], the protein stability index worked out at 2.79. Same read-out and setting: as for RRKYFERLPGGGWTLRRTKELRKD [A1R], the figure is 3.19; as for KRKYFERLPGGGWTLRRTKELRKD [A1K], 4.13; as for MRKYFERLPGGGWTLRRTKELRKD [A1M], 2.84. For the variant ARKYFERLPGGGWTLRRTKCLRKD [E20C], the protein stability index came out at 3.69.

For the variant ARKYFERLPGGGWTLRRTKELRKL [D24L], the protein stability index was determined as 2.58. For ARKYFERLPGGGWTLRRTKELRKI [D24I], the protein stability index stood at 3.82. The same measure, in the same setting: as for ARKYFERNPGGGWTLRRTKELRKD [L8N], the figure is 3.4. The same measure, in the same setting: with ARLYFERLPGGGWTLRRTKELRKD [K3L] the figure was 2.48; with ARIYFERLPGGGWTLRRTKELRKD [K3I], 1.92; with ARKYFTRLPGGGWTLRRTKELRKD [E6T], 3.78. Take ARKYFERLPGGGWWLRRTKELRKD [T14W]: the protein stability index turned out to be 2.72. For ARKYFERLPGGGWPLRRTKELRKD [T14P], the protein stability index stood at 2.52. Regarding ARKYFERLPGLGWTLRRTKELRKD [G11L], the protein stability index was 3.11. On the same count and under the same terms, as for ARKYFERLPGNGWTLRRTKELRKD [G11N], the figure is 3.17. Take ARKYFERLPGHGWTLRRTKELRKD [G11H]: the protein stability index was 2.4. Still for that read-out and setting: as for ARKYFERLPGGGWTLRRTKELRLD [K23L], the figure is 2.81.
